Measured values as given in patent US20150322129A1 (Sanofi, published 2015).
Numbered stars: 1 amine (or outer) side, 2 acyl side, 3 side chain; on linkers, the order of the positions; unused ones are H or OH. Square brackets hold non-standard residues; d marks the D form. Side chains are listed from the residue outwards. Ends that are not written are not given here. * marks the point of attachment. γGlu = O=C(O)[C@H](CCC(=O)[*:2])N[*:1]; Stearoyl = CCCCCCCCCCCCCCCCCC(=O)*; Palmitoyl = CCCCCCCCCCCCCCCC(=O)*; AEEA = NCCOCCOCC(=O)O; Aib = CC(C)(N)C(=O)O

B1: SEQ ID NO: 8 (peptide)
peptide: HXHGTFTSDLSKQKDEEAVRLFIEWLKAGGPSSGAPPPS
modifications: Aib at position 2; Lys 14 side-chain NH2 acylated with γE-x70 = (S)-4-Carboxy-4-octadecanoylamino-butyryl-; C-terminal amide (NH2)
B2: SEQ ID NO: 27 (peptide)
peptide: H-H[Aib]HGTFTSDLSKQK([AEEA-AEEA-γGlu-Palmitoyl])EEEAVRLFIEWLKAGGPSSGAPPPS-NH2
B3: SEQ ID NO: 24 (peptide)
peptide: H-H[Aib]QGTFTSDLSKQK([γGlu-γGlu-Palmitoyl])EEEAVRLFIEWLKAGGPSSGAPPPS-NH2
SMILES: CCCCCCCCCCCCCCCC(=O)N[C@@H](CCC(=O)N[C@@H](CCC(=O)NCCCC[C@H](NC(=O)[C@H](CCC(N)=O)NC(=O)[C@H](CCCCN)NC(=O)[C@H](CO)NC(=O)[C@H](CC(C)C)NC(=O)[C@H](CC(=O)O)NC(=O)[C@H](CO)NC(=O)[C@@H](NC(=O)[C@H](Cc1ccccc1)NC(=O)[C@@H](NC(=O)CNC(=O)[C@H](CCC(N)=O)NC(=O)C(C)(C)NC(=O)[C@@H](N)Cc1c[nH]cn1)[C@@H](C)O)[C@@H](C)O)C(=O)N[C@@H](CCC(=O)O)C(=O)N[C@@H](CCC(=O)O)C(=O)N[C@@H](CCC(=O)O)C(=O)N[C@@H](C)C(=O)N[C@H](C(=O)N[C@@H](CCCNC(=N)N)C(=O)N[C@@H](CC(C)C)C(=O)N[C@@H](Cc1ccccc1)C(=O)N[C@H](C(=O)N[C@@H](CCC(=O)O)C(=O)N[C@@H](Cc1c[nH]c2ccccc12)C(=O)N[C@@H](CC(C)C)C(=O)N[C@@H](CCCCN)C(=O)N[C@@H](C)C(=O)NCC(=O)NCC(=O)N1CCC[C@H]1C(=O)N[C@@H](CO)C(=O)N[C@@H](CO)C(=O)NCC(=O)N[C@@H](C)C(=O)N1CCC[C@H]1C(=O)N1CCC[C@H]1C(=O)N1CCC[C@H]1C(=O)N[C@@H](CO)C(N)=O)[C@@H](C)CC)C(C)C)C(=O)O)C(=O)O
B4: SEQ ID NO: 10 (peptide)
peptide: HSHGTFTSDLSKQK([γGlu-Stearoyl])EEEAVRLFIEWLKAGGPSSGAPPPS-NH2
B5: SEQ ID NO: 21 (peptide)
peptide: H-H[dS]HGTFTSDLSKQK([γGlu-γGlu-Palmitoyl])DEEAVRLFIEWLKAGGPSSGAPPPS-NH2
SMILES: CCCCCCCCCCCCCCCC(=O)N[C@@H](CCC(=O)N[C@@H](CCC(=O)NCCCC[C@H](NC(=O)[C@H](CCC(N)=O)NC(=O)[C@H](CCCCN)NC(=O)[C@H](CO)NC(=O)[C@H](CC(C)C)NC(=O)[C@H](CC(=O)O)NC(=O)[C@H](CO)NC(=O)[C@@H](NC(=O)[C@H](Cc1ccccc1)NC(=O)[C@@H](NC(=O)CNC(=O)[C@H](Cc1c[nH]cn1)NC(=O)[C@@H](CO)NC(=O)[C@@H](N)Cc1c[nH]cn1)[C@@H](C)O)[C@@H](C)O)C(=O)N[C@@H](CC(=O)O)C(=O)N[C@@H](CCC(=O)O)C(=O)N[C@@H](CCC(=O)O)C(=O)N[C@@H](C)C(=O)N[C@H](C(=O)N[C@@H](CCCNC(=N)N)C(=O)N[C@@H](CC(C)C)C(=O)N[C@@H](Cc1ccccc1)C(=O)N[C@H](C(=O)N[C@@H](CCC(=O)O)C(=O)N[C@@H](Cc1c[nH]c2ccccc12)C(=O)N[C@@H](CC(C)C)C(=O)N[C@@H](CCCCN)C(=O)N[C@@H](C)C(=O)NCC(=O)NCC(=O)N1CCC[C@H]1C(=O)N[C@@H](CO)C(=O)N[C@@H](CO)C(=O)NCC(=O)N[C@@H](C)C(=O)N1CCC[C@H]1C(=O)N1CCC[C@H]1C(=O)N1CCC[C@H]1C(=O)N[C@@H](CO)C(N)=O)[C@@H](C)CC)C(C)C)C(=O)O)C(=O)O
B6: SEQ ID NO: 15 (peptide)
peptide: H[dS]HGTFTSDLSKQK([γGlu-Stearoyl])DEEAVRLFIEWLKAGGPSSGAPPPS-NH2
modifications: N-terminus assumed
SMILES: CCCCCCCCCCCCCCCCCC(=O)N[C@@H](CCC(=O)NCCCC[C@H](NC(=O)[C@H](CCC(N)=O)NC(=O)[C@H](CCCCN)NC(=O)[C@H](CO)NC(=O)[C@H](CC(C)C)NC(=O)[C@H](CC(=O)O)NC(=O)[C@H](CO)NC(=O)[C@@H](NC(=O)[C@H](Cc1ccccc1)NC(=O)[C@@H](NC(=O)CNC(=O)[C@H](Cc1c[nH]cn1)NC(=O)[C@@H](CO)NC(=O)[C@@H](N)Cc1c[nH]cn1)[C@@H](C)O)[C@@H](C)O)C(=O)N[C@@H](CC(=O)O)C(=O)N[C@@H](CCC(=O)O)C(=O)N[C@@H](CCC(=O)O)C(=O)N[C@@H](C)C(=O)N[C@H](C(=O)N[C@@H](CCCNC(=N)N)C(=O)N[C@@H](CC(C)C)C(=O)N[C@@H](Cc1ccccc1)C(=O)N[C@H](C(=O)N[C@@H](CCC(=O)O)C(=O)N[C@@H](Cc1c[nH]c2ccccc12)C(=O)N[C@@H](CC(C)C)C(=O)N[C@@H](CCCCN)C(=O)N[C@@H](C)C(=O)NCC(=O)NCC(=O)N1CCC[C@H]1C(=O)N[C@@H](CO)C(=O)N[C@@H](CO)C(=O)NCC(=O)N[C@@H](C)C(=O)N1CCC[C@H]1C(=O)N1CCC[C@H]1C(=O)N1CCC[C@H]1C(=O)N[C@@H](CO)C(N)=O)[C@@H](C)CC)C(C)C)C(=O)O
B7: SEQ ID NO: 6 (peptide)
peptide: H[Aib]QGTFTSDLSKQK([γGlu-Stearoyl])EEEAVRLFIEWLKAGGPSSGAPPPS-NH2
B8: SEQ ID NO: 19 (peptide)
peptide: H[dS]QGTFTSDLSKQK([γGlu-Stearoyl])DEEAVRLFIEWLKAGGPSSGAPPPS-NH2
modifications: N-terminus assumed
SMILES: CCCCCCCCCCCCCCCCCC(=O)N[C@@H](CCC(=O)NCCCC[C@H](NC(=O)[C@H](CCC(N)=O)NC(=O)[C@H](CCCCN)NC(=O)[C@H](CO)NC(=O)[C@H](CC(C)C)NC(=O)[C@H](CC(=O)O)NC(=O)[C@H](CO)NC(=O)[C@@H](NC(=O)[C@H](Cc1ccccc1)NC(=O)[C@@H](NC(=O)CNC(=O)[C@H](CCC(N)=O)NC(=O)[C@@H](CO)NC(=O)[C@@H](N)Cc1c[nH]cn1)[C@@H](C)O)[C@@H](C)O)C(=O)N[C@@H](CC(=O)O)C(=O)N[C@@H](CCC(=O)O)C(=O)N[C@@H](CCC(=O)O)C(=O)N[C@@H](C)C(=O)N[C@H](C(=O)N[C@@H](CCCNC(=N)N)C(=O)N[C@@H](CC(C)C)C(=O)N[C@@H](Cc1ccccc1)C(=O)N[C@H](C(=O)N[C@@H](CCC(=O)O)C(=O)N[C@@H](Cc1c[nH]c2ccccc12)C(=O)N[C@@H](CC(C)C)C(=O)N[C@@H](CCCCN)C(=O)N[C@@H](C)C(=O)NCC(=O)NCC(=O)N1CCC[C@H]1C(=O)N[C@@H](CO)C(=O)N[C@@H](CO)C(=O)NCC(=O)N[C@@H](C)C(=O)N1CCC[C@H]1C(=O)N1CCC[C@H]1C(=O)N1CCC[C@H]1C(=O)N[C@@H](CO)C(N)=O)[C@@H](C)CC)C(C)C)C(=O)O

Biological target: human glucagon receptor (human, UniProt P47871 26-477)
Sequence (P47871 26-477): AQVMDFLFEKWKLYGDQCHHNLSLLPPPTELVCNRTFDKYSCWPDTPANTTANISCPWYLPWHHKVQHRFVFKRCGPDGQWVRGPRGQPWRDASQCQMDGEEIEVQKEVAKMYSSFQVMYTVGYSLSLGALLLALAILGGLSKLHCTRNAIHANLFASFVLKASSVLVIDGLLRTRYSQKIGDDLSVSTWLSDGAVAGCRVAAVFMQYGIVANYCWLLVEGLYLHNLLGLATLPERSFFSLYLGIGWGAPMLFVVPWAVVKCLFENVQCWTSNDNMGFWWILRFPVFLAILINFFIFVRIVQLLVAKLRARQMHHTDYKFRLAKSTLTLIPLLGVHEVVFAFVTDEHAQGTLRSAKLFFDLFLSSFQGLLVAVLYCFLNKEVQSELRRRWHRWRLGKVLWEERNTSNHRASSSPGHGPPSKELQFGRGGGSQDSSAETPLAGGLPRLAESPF
Experiment: cell-based or functional assay

| Binder | EC50 hGlucagon-R (cAMP formation) [pM] |
| --- | --- |
| B1 | 24.5 |
| B2 | 23.4 |
| B3 | 261 |
| B4 | 6.9 |
| B5 | 85.9 |
| B6 | 64 |
| B7 | 309 |
| B8 | 129 |

Biological target: T1, human GIP receptor (human, UniProt P48546 22-466)
T1 sequence (looked up): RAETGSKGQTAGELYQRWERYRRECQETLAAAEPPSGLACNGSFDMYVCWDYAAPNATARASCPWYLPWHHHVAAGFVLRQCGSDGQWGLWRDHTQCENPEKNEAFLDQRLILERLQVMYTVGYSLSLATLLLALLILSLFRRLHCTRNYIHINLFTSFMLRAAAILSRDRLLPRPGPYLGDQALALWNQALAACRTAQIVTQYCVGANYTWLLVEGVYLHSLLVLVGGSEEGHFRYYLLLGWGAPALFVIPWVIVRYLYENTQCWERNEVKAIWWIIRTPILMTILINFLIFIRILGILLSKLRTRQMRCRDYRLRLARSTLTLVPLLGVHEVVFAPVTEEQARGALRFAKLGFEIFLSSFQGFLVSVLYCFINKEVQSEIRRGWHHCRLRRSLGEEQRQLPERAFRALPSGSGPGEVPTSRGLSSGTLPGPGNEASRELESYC
Experiment: cell-based or functional assay

| Binder | EC50 hGIP-R (cAMP formation) [pM] |
| --- | --- |
| B1 | 25.8 |
| B2 | 9.5 |
| B3 | 19.9 |
| B4 | 71.1 |
| B5 | 99.4 |
| B6 | 555 |
| B7 | 60.7 |
| B8 | 400 |

Biological target: human GLP-1 receptor (human, UniProt P43220 24-463)
Experiment: cell-based or functional assay

| Binder | EC50 hGLP-1R (cAMP formation) [pM] |
| --- | --- |
| B4 | 3.4 |
| B5 | 0.8 |
| B6 | 4.4 |
| B7 | 9.4 |
| B8 | 3.5 |
